From patent publication EP4786492A1

Key:
[1] = molecular target: human DLL3 protein expressed on CHO-K1 recombinant cells (human DLL3 extracellular segment fused to EpCAM transmembrane and intracellular regions) (human) (UniProt Q9NYJ7); test: FACS, CHO-K1 hDLL3 cells, 0.0064 nM antibody
[2] = molecular target: human delta-like ligand 3 (DLL3) on SHP77 cells (human) (UniProt Q9NYJ7); test: FACS on SHP77 cells
[3] = molecular target: human DLL3 protein expressed on CHO-K1 recombinant cells (human DLL3 extracellular segment fused to EpCAM transmembrane and intracellular regions) (human) (UniProt Q9NYJ7); test: FACS, CHO-K1 hDLL3 cells, 100 nM antibody
[4] = molecular target: human DLL3 protein expressed on CHO-K1 recombinant cells (human DLL3 extracellular segment fused to EpCAM transmembrane and intracellular regions) (human) (UniProt Q9NYJ7); test: FACS, CHO-K1 hDLL3 cells, 20 nM antibody
[5] = molecular target: human DLL3 protein expressed on CHO-K1 recombinant cells (human DLL3 extracellular segment fused to EpCAM transmembrane and intracellular regions) (human) (UniProt Q9NYJ7); test: FACS, CHO-K1 hDLL3 cells, 4 nM antibody
[6] = molecular target: human DLL3 protein expressed on CHO-K1 recombinant cells (human DLL3 extracellular segment fused to EpCAM transmembrane and intracellular regions) (human) (UniProt Q9NYJ7); test: FACS, CHO-K1 hDLL3 cells, 0.00128 nM antibody
[7] = molecular target: human DLL3 protein expressed on CHO-K1 recombinant cells (human DLL3 extracellular segment fused to EpCAM transmembrane and intracellular regions) (human) (UniProt Q9NYJ7); test: FACS, CHO-K1 hDLL3 cells, 0.16 nM antibody
[8] = molecular target: human DLL3 protein expressed on CHO-K1 recombinant cells (human DLL3 extracellular segment fused to EpCAM transmembrane and intracellular regions) (human) (UniProt Q9NYJ7); test: FACS, CHO-K1 hDLL3 cells, 0.032 nM antibody
[9] = molecular target: human DLL3 protein expressed on CHO-K1 recombinant cells (human DLL3 extracellular segment fused to EpCAM transmembrane and intracellular regions) (human) (UniProt Q9NYJ7); test: FACS, CHO-K1 hDLL3 cells, 0.8 nM antibody
[10] = molecular target: DLL3 endogenously expressed on NCI-H82 cells (UniProt Q9NYJ7); test: FACS on NCI-H82 cells; antibody 0.00128 nM
[11] = molecular target: DLL3 endogenously expressed on NCI-H82 cells (UniProt Q9NYJ7); test: FACS on NCI-H82 cells; antibody 0.16 nM
[12] = molecular target: DLL3 endogenously expressed on NCI-H82 cells (UniProt Q9NYJ7); test: FACS on NCI-H82 cells; antibody 100 nM
[13] = molecular target: DLL3 endogenously expressed on NCI-H82 cells (UniProt Q9NYJ7); test: FACS on NCI-H82 cells; antibody 0.8 nM
[14] = molecular target: human DLL3 protein (extracellular segment, His tag) (human) (UniProt Q9NYJ7); test: SPR (Biacore 8K), antibody captured on Protein A chip, DLL3 antigen in solution, 1:1 Langmuir fit
[15] = molecular target: DLL3 endogenously expressed on NCI-H82 cells (UniProt Q9NYJ7); test: FACS on NCI-H82 cells; antibody 20 nM
[16] = molecular target: DLL3 endogenously expressed on NCI-H82 cells (UniProt Q9NYJ7); test: FACS on NCI-H82 cells; antibody 4 nM
[17] = molecular target: DLL3 endogenously expressed on NCI-H82 cells (UniProt Q9NYJ7); test: FACS on NCI-H82 cells; antibody 0.0064 nM
[18] = molecular target: DLL3 endogenously expressed on NCI-H82 cells (UniProt Q9NYJ7); test: FACS on NCI-H82 cells; antibody 0.032 nM
[19] = molecular target: monkey DLL3 on CHO-K1-cyno DLL3 cells (cynomolgus monkey); test: FACS, CHO-K1-cyno DLL3 cells, 0.0064 nM antibody
[20] = molecular target: human DLL4 protein (Acro, Cat. No. DL4-H5227) (human) (UniProt Q9NR61); test: ELISA, coated hDLL4; maximum over 0.1, 1, 10, 100 nM antibody
[21] = molecular target: monkey DLL3 on CHO-K1-cyno DLL3 cells (cynomolgus monkey); test: FACS, CHO-K1-cyno DLL3 cells, 0.032 nM antibody
[22] = molecular target: monkey DLL3 on CHO-K1-cyno DLL3 cells (cynomolgus monkey); test: FACS, CHO-K1-cyno DLL3 cells, 20 nM antibody
[23] = molecular target: human DLL1 protein (Acro, Cat. No. DL1-H52H8) (human) (UniProt O00548); test: ELISA, coated hDLL1; maximum over 0.1, 1, 10, 100 nM antibody
[24] = molecular target: monkey DLL3 on CHO-K1-cyno DLL3 cells (cynomolgus monkey); test: FACS, CHO-K1-cyno DLL3 cells, 4 nM antibody
[25] = molecular target: monkey DLL3 on CHO-K1-cyno DLL3 cells (cynomolgus monkey); test: FACS, CHO-K1-cyno DLL3 cells, 0.00128 nM antibody
[26] = molecular target: monkey DLL3 on CHO-K1-cyno DLL3 cells (cynomolgus monkey); test: FACS, CHO-K1-cyno DLL3 cells, 100 nM antibody
[27] = molecular target: monkey DLL3 on CHO-K1-cyno DLL3 cells (cynomolgus monkey); test: FACS, CHO-K1-cyno DLL3 cells, 0.8 nM antibody
[28] = molecular target: monkey DLL3 on CHO-K1-cyno DLL3 cells (cynomolgus monkey); test: FACS, CHO-K1-cyno DLL3 cells, 0.16 nM antibody

human delta-like ligand 3 (DLL3) on SHP77 cells (human), sequence (Q9NYJ7 27-618, stated change not applied): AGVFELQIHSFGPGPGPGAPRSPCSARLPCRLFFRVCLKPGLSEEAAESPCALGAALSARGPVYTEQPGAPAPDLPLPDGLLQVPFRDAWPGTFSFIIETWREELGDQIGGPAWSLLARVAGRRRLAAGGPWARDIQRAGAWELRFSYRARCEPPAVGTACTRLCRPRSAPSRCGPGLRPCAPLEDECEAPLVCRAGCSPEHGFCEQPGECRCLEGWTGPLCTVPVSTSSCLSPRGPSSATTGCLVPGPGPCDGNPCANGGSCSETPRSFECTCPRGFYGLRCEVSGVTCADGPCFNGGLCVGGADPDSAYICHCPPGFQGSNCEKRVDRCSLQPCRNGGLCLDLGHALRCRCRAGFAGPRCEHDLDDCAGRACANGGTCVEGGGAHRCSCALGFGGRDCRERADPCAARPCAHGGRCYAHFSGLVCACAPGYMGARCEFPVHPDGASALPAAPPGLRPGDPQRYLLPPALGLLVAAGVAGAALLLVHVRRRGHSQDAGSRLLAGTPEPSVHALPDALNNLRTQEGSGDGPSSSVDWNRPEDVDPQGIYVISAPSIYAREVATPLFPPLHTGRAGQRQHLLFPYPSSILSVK
DLL3 endogenously expressed on NCI-H82 cells, sequence (Q9NYJ7 27-618): as the sequence (Q9NYJ7 27-618, stated change not applied) above
human DLL3 protein (extracellular segment, His tag) (human), sequence (Q9NYJ7 27-492): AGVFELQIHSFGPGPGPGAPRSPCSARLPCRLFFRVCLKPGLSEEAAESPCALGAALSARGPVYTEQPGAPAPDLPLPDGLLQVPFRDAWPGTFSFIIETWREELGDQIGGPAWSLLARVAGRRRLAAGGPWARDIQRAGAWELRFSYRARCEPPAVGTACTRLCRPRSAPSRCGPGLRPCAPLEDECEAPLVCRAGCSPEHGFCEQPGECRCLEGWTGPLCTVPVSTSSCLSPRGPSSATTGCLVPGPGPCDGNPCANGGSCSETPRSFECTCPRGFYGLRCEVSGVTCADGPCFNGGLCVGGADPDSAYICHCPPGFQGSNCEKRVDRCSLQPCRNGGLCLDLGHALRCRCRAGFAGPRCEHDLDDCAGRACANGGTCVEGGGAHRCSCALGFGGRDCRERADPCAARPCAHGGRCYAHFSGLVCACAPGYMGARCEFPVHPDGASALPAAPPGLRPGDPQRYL
human DLL3 protein expressed on CHO-K1 recombinant cells (human DLL3 extracellular segment fused to EpCAM transmembrane and intracellular regions) (human), sequence (Q9NYJ7 other isoform, or with tags, fused parts or gaps limits assumed): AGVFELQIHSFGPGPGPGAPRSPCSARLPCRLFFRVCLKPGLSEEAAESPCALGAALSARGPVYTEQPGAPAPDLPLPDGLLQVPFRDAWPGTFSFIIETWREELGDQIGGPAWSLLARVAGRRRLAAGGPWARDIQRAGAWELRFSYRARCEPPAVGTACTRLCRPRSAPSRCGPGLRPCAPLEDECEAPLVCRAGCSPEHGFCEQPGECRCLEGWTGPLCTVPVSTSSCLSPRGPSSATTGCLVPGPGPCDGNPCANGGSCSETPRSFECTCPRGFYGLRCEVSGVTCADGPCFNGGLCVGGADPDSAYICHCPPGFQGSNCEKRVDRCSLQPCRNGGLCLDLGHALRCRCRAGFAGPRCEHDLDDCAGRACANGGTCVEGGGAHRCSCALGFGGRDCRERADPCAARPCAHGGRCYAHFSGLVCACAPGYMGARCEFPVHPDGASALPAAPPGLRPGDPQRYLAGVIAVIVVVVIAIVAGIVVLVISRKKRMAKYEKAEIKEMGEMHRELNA
monkey DLL3 on CHO-K1-cyno DLL3 cells (cynomolgus monkey), sequence (chain, as listed by the source limits assumed): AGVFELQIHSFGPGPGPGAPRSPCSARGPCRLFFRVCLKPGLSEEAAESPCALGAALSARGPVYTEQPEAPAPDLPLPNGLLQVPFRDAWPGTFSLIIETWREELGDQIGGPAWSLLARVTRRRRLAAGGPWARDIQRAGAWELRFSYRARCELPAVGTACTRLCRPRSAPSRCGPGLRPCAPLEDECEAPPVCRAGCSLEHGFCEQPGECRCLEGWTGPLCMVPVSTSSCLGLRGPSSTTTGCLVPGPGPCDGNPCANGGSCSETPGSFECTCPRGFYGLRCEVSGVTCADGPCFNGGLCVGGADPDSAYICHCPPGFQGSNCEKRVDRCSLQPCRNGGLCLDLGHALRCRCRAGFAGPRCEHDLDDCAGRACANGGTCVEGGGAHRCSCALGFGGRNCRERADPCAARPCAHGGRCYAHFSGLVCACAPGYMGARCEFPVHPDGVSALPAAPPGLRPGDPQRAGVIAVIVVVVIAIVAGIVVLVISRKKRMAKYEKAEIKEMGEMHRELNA
human DLL4 protein (Acro, Cat. No. DL4-H5227) (human), sequence (Q9NR61 27-524 limits assumed): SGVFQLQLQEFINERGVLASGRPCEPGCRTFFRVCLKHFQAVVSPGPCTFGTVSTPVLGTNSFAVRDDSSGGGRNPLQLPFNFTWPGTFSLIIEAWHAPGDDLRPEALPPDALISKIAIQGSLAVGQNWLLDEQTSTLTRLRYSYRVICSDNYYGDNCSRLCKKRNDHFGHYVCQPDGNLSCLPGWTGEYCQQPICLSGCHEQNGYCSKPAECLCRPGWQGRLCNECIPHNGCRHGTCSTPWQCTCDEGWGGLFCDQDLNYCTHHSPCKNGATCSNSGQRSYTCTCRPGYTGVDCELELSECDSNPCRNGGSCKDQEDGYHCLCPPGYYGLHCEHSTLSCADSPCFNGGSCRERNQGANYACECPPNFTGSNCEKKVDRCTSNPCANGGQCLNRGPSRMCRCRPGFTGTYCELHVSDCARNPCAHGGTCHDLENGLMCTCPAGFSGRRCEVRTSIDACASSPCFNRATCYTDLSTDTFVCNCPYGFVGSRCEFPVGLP
human DLL1 protein (Acro, Cat. No. DL1-H52H8) (human), sequence (O00548 18-540 limits assumed): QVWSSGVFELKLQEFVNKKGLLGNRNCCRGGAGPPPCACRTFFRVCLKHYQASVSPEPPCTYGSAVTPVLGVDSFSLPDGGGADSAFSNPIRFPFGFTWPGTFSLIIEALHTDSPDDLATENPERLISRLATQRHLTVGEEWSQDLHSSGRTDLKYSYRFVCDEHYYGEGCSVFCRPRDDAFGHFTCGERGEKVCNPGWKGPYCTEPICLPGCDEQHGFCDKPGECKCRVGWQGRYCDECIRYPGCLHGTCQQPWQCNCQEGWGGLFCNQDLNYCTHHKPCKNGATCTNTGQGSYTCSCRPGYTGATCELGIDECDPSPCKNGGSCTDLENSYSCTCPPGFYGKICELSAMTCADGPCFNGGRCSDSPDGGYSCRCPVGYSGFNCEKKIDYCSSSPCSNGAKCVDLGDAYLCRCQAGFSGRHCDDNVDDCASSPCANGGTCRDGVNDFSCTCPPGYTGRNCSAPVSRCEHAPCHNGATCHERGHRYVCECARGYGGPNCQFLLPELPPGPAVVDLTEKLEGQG

MFI [1] | MFI at 0.00128 nM [2] | MFI at 0.0064 nM [2] | MFI at 0.032 nM [2] | MFI at 0.16 nM [2] | MFI at 0.8 nM [2] | MFI at 4 nM [2] | MFI at 20 nM [2] | MFI at 100 nM [2] | MFI [10] | MFI [11] | MFI [12] | MFI [13] | Kd [14] | koff [14] | kon [14] | MFI [15] | MFI [16] | MFI [17] | MFI [18] | Binder | other results
 |  |  |  |  |  |  |  |  | 113 | 588 | 1680 | 1120 | 0.597 pM | 1.46e-06 s⁻¹ | 2.45e+06 M⁻¹ s⁻¹ | 1360 | 1190 | 135 | 218 | mab015 scFv-hFc (Fc fusion, part only; not given: linker and human IgG1 Fc, not shown: a dimerising Fc or GST) chain, part: NIVMTQSPKSMSMSVGERVTLSCKASENVGTYVSWFQQKPEQSPKLLIYGASNRYTGVPDRFTGSGSATDFTLTISSVQAEDLADYHCGQFYSFPCTFGGGTKLEIKEVKLEESGGGLVQPGGSMKLSCVASGITFSNFWMNWVRQSPEKGLEWVAQIRLKSDDYATHYAESVKGRFTISRDDSKGSVYLQMNNLRTEDTGIHYCTTGYYFDYWGQGTTLTVSS | 
 |  |  |  |  |  |  |  |  | 112 | 429 | 1190 | 667 | 54.7 pM | 4.64e-05 s⁻¹ | 848000 M⁻¹ s⁻¹ | 829 | 702 | 134 | 213 | mab014 scFv-hFc (Fc fusion, part only; not given: Linker and human IgG1 Fc, not shown: a dimerising Fc or GST) chain, part: DIQMTQSSSSFSVSLGDRVTITCKASEDIYNRLAWYQQKPGNTPRLLISGATSLETGVPSRFSGSGSGKDFTLSITSLQTEDVATYYCQQYWSLPWTFGGGTKLEIKEVQLHQSGPELVKPGTSVKISCKASGYTFTDYYMNWVKQSHGKSLEWIGDINPNHGDTGYNQKFTGKATLTVDKSSSTAYMELRSLTSEDSAVYYCARNFFYYGTTYGWYFDVWGTGTTVTVSS | 

The remaining lines, values behind:

Binder | MFI [1] | MFI at 0.00128 nM [2] | MFI at 0.0064 nM [2] | MFI at 0.032 nM [2] | MFI at 0.16 nM [2] | MFI at 0.8 nM [2] | MFI at 4 nM [2] | MFI at 20 nM [2] | MFI at 100 nM [2] | MFI [10] | MFI [11] | MFI [12] | MFI [13] | Kd [14] | koff [14] | kon [14] | MFI [15] | MFI [16] | MFI [17] | MFI [18] | other results
Hab009VL3aVH1-hFc (Fc fusion, part only; not given: Linker and human IgG1 Fc, not shown: a dimerising Fc or GST) chain, part: DIVMTQSPLSLPVTPGEPASISCRASQTISDYLHWYLQKSHQSPQLLIKYASQSISGVPDRFSGSGSGTDFTLKISRVEAEDVGVYYCQQGHSFPLTFGQGTKLEIKEVQLVQSGAEVKKPGASVKVSCKASGYTFTSYWMHWVRQAPGQRLEWMGTIYPGNSDTRYNQKFKDRVTITADTSASTAYMELSSLRSEDTAVYYCTRSYDYGDLDYWGQGTTVTVSS | 458 MFI | 105 MFI | 128 MFI | 196 MFI | 396 MFI | 673 MFI | 769 MFI | 852 MFI | 954 MFI |  |  |  |  |  |  |  |  |  |  |  | MFI [3]: 13400 MFI; MFI [4]: 13300 MFI; MFI [5]: 12800 MFI; MFI [6]: 204 MFI; MFI [7]: 5730 MFI; MFI [8]: 1500 MFI; MFI [9]: 11800 MFI
mab008 scFv-hFc (Fc fusion, part only; not given: linker and human IgG1 Fc, not shown: a dimerising Fc or GST) chain, part: DIVMTQSQKFMSTSVGDRVSITCKASQNVGTAVAWYQQKPGQSPKLLIFSASIRYTGVPDRFTGSGSGTDFTLTISNMQSEDLADYFCQQYSSSPYTFGGGTKLEIKEVQLQQSGPVLVKPGASVKMSCKASGYTFTDYYMNWVKRSHGKSLEWIGIINPYNGGTSYNQKFRGKATLTVDKSSNTAYMELNSLTSEDSAVYYCSRYDYDYDVEGAMDYWGQGTSVTVSS |  |  |  |  |  |  |  |  |  | 113 | 107 | 537 | 176 | 381 pM | 0.00034 s⁻¹ | 891000 M⁻¹ s⁻¹ | 438 | 373 | 94 | 95 | 
Hab008L1H2a-hFc (scFv, part only; not given: VL-VH linker and human IgG1 Fc, V domains shown, not shown: another chain or arm of the molecule; a dimerising Fc or GST; small tags and cut ends) VL: DIQMTQSPSSLSASVGDRVTITCKASQNVGTAVAWYQQKPGKSPKLLIFSASIRYTGVPSRFSGSGSGTDFTLTISSLQPEDFATYYCQQYSSSPYTFGGGTKVEIK VH: EVQLVQSGAEVKKPGASVKVSCKASGYTFTDYYMNWVRQAPGQRLEWMGIINPYNSGTSYNQKFRGRVTLTVDKSASTAYMELSSLRSEDTAVYYCSRYDYDYDVEGAMDYWGQGTTVTVSS | 148 MFI | 119 MFI | 121 MFI | 126 MFI | 144 MFI | 187 MFI | 297 MFI | 532 MFI | 758 MFI | 93 | 194 | 617 | 312 | 535 pM | 0.000324 s⁻¹ | 606000 M⁻¹ s⁻¹ | 503 | 440 | 106 | 134 | MFI [3]: 7690 MFI; MFI [19]: 231 MFI; MFI [4]: 7660 MFI; Emax of OD450 nm binding value [20]: 0.07 OD450 nm; MFI [21]: 511 MFI; MFI [22]: 19500 MFI; MFI [5]: 7440 MFI; Emax of OD450 nm binding value [23]: 0.06 OD450 nm; MFI [6]: 109 MFI; MFI [7]: 866 MFI; MFI [8]: 316 MFI; MFI [24]: 17600 MFI; MFI [9]: 3700 MFI; MFI [25]: 129 MFI; MFI [26]: 18600 MFI; MFI [27]: 7010 MFI; MFI [28]: 1540 MFI
Hab008L1H5-hFc (scFv, part only; not given: VL-VH linker and human IgG1 Fc, V domains shown, not shown: another chain or arm of the molecule; a dimerising Fc or GST; small tags and cut ends) VL: DIQMTQSPSSLSASVGDRVTITCKASQNVGTAVAWYQQKPGKSPKLLIFSASIRYTGVPSRFSGSGSGTDFTLTISSLQPEDFATYYCQQYSSSPYTFGGGTKVEIK VH: EVQLVQSGAEVKKPGASVKVSCKASGYTFTDYYMNWVRRAPGQRLEWMGIINPYNGGTSYNQKFRGRVTITVDKSASTAYMELSSLRSEDTAVYYCSRYDYDYDVEGAMDYWGQGTTVTVSS | 127 MFI | 121 MFI | 120 MFI | 123 MFI | 139 MFI | 186 MFI | 333 MFI | 793 MFI | 1530 MFI | 102 | 149 | 1860 | 245 |  |  |  | 1020 | 539 | 106 | 114 | MFI [3]: 8400 MFI; MFI [19]: 159 MFI; MFI [4]: 7750 MFI; Emax of OD450 nm binding value [20]: 0.69 OD450 nm; MFI [21]: 286 MFI; MFI [22]: 18400 MFI; MFI [5]: 6530 MFI; Emax of OD450 nm binding value [23]: 0.24 OD450 nm; MFI [6]: 103 MFI; MFI [7]: 521 MFI; MFI [8]: 221 MFI; MFI [24]: 12100 MFI; MFI [9]: 2170 MFI; MFI [25]: 116 MFI; MFI [26]: 18400 MFI; MFI [27]: 2940 MFI; MFI [28]: 711 MFI
